In patent US20240287172A1 (SCIRHOM, published 2024):

T1: hiR2-FL-E594V-T7 (human, UniProt Q6PJF5 1-856)
T1 sequence: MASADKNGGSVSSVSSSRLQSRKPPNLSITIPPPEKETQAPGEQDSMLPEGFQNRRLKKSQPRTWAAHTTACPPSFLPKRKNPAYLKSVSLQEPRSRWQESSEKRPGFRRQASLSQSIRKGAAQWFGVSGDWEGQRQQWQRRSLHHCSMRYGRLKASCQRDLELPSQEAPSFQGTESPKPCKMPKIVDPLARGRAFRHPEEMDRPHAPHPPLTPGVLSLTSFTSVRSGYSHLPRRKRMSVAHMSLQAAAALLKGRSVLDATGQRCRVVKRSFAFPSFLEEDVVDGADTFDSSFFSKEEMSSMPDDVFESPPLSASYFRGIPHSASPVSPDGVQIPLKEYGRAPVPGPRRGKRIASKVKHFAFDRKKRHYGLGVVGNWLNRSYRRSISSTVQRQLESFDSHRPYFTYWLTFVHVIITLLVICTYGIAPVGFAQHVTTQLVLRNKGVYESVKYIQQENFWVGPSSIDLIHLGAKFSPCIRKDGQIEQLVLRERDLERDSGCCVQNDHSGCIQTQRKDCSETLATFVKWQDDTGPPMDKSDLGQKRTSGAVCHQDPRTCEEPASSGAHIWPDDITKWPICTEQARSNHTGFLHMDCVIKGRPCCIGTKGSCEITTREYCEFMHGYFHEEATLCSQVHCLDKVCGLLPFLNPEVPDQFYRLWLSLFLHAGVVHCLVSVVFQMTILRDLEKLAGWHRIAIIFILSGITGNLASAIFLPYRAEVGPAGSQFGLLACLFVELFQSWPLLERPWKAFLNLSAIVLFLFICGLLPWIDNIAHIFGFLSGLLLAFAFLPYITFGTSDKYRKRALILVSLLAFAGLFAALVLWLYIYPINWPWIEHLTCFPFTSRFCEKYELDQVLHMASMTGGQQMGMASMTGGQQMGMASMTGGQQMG


Biological target: T1, hiR2-FL-E594V-T7
Assay: FACS, MEF-DKO cells, 3 µg/ml
How it was run: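 MEF-DKO cells expressing T7-tagged full-length hiR2 point mutants were stained on ice for 1 h with purified antibodies at 3 μg/ml in FACS buffer. Detection used PE-conjugated goat anti-mouse IgG F(ab′)2 (1:100, 1 h on ice), read by flow cytometry; buffer-only wells served as controls.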

| Binder | loss of binding vs wild type [%] |
| --- | --- |
| antibody 48 (antibody, V domains shown, mouse IgG, kappa light chain; also called clone #48; purified antibody 48) VH: QVQLQQSGTELVRPGTSVKVSCKASGYAFTNYLIEWVKQRPGQGLEWIGVINPGSGFTKYNEKFKGKATLTADKSSSTVYMHLSSLTSEDSAVYFCARGLYRAMDYWGQGTSVTVSS VL: DIQMTQSPASQSASLGESVTITCLASQTIATWLAWYQQKPGKSPQLLIYGATTLADGVPSRFSGGGSGTKFSFKISSLQAEDFVSYYCQQLYSTPYTFGGGTKLEIK | ≥ 30 |
| antibody 50 (antibody, V domains shown, mouse IgG, kappa light chain; also called clone #50; purified antibody 50) VH: QVQLQQSGAELVRPGASVKVSCKASGYAFSNYLIEWVKQRPGQGLEWIGVINPGSGFTKYNEKFKGKATLTADKSSSTAYMQLSSLTSEDSAVYFCARGLYRAMDYWGQGTSVTVSS VL: DIQMTQSPASQSASLGESVTITCLASQTIGTWLAWYQQKPGKSPQLLIYAAASLADGVPSRFSGGGSGTKFSFKISSLQAEDFVNYYCQQIYSTPYTFGGGTKLEIK | ≥ 30 |
